Target: receptor on the pea aphid (Acyrthosiphon pisum) gut epithelium
Experiment: cell-based or functional assay

With “control phage PhDC6 displaying control peptide C6” the Detection of PEMV RNA in the aphid hemocoel, 1-10 min (No. of positive/No. of tested) (positive samples of 4 tested) was 0, the Detection of PEMV RNA in the aphid hemocoel, 11-20 min (No. of positive/No. of tested) (positive samples of 4 tested) was 0 and the Detection of PEMV RNA in the aphid hemocoel, 21-30 min (No. of positive/No. of tested) (positive samples of 4 tested) was 2. It also gave a time of feeding on virus-infected plants until viral RNA is detected in hemolymph of 30 min.

B1: phage PhD3.1 displaying peptide GBP3.1 (peptide, not shown: large carriers)
peptide: ATCSKKYPRSPCMA
For B1, the Detection of PEMV RNA in the aphid hemocoel, 1-10 min (No. of positive/No. of tested) (positive samples of 6 tested) was 0, the Detection of PEMV RNA in the aphid hemocoel, 11-20 min (No. of positive/No. of tested) (positive samples of 6 tested) was 0 and the Detection of PEMV RNA in the aphid hemocoel, 21-30 min (No. of positive/No. of tested) (positive samples of 6 tested) was 0. It also gave a Detection of PEMV RNA in the aphid hemocoel, 31-40 min (No. of positive/No. of tested) (positive samples of 6 tested) of 0, a Detection of PEMV RNA in the aphid hemocoel, 41-50 min (No. of positive/No. of tested) (positive samples of 6 tested) of 0 and a Detection of PEMV RNA in the aphid hemocoel, 51-60 min (No. of positive/No. of tested) (positive samples of 6 tested) of 1. For the same molecule, the Detection of PEMV RNA in the aphid hemocoel, 61-75 min (No. of positive/No. of tested) (positive samples of 2 tested) was 0, the Detection of PEMV RNA in the aphid hemocoel, 76-90 min (No. of positive/No. of tested) (positive samples of 2 tested) was 0 and the time of feeding on virus-infected plants until viral RNA is detected in hemolymph was 60 min.
